Experiments:
[1] = biological target: T1, TauC3 (C-terminally truncated tau fragment ending at aspartate 421 of htau40) (human, UniProt P10636 1-738); test: binding ELISA on coated TauC3, OD650; left table (HC variants)
T1 construct: Generated and purified by Genscript; also called Human TauC3; recombinant TauC3 protein
Method in brief: (§1)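 Chimeric or humanized IgG4κ antibodies were expressed in ExpiCHO cells and tested by binding ELISA against coated TauC3 antigen, which Genscript made and purified. Absorbance was read at 650 nm as the measure of binding. EC50 was calculated from the antibody concentration-response.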

[2] = biological target: T1, TauC3 (C-terminally truncated tau …); test: binding ELISA on coated TauC3, OD650
Method in brief: as §1

[3] = biological target: T1, TauC3 (C-terminally truncated tau …); test: binding ELISA on coated TauC3, OD650; remark: listed apart in the source
Method in brief: as §1

[4] = biological target: T1, TauC3 (C-terminally truncated tau …); test: binding ELISA on coated TauC3, OD650; remark: listed apart in the source
Method in brief: as §1

T1 sequence (P10636 other isoform, or with tags, fused parts or gaps): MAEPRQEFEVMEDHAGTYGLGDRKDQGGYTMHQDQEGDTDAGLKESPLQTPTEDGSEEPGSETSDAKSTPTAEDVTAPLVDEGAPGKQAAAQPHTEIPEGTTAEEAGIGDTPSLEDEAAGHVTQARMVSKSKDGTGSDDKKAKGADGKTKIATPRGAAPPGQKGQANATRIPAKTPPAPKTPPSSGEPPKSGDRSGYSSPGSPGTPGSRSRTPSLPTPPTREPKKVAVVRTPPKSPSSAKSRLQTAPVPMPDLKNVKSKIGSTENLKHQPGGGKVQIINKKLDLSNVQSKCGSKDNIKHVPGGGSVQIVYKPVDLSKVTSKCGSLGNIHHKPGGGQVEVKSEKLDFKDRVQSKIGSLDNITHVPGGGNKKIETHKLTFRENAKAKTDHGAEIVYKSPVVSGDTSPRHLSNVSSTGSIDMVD

Binder | EC50 [1] [nM] | EC50 [2] [nM] | EC50 [3] [nM] | EC50 [4] [nM]
Tau01 HCKA (antibody, V domains shown, human IgG4 kappa (HuG4K)) VH: LVQLVESGGGLVQPGGSLKLSCAASGFTFNTYAMNWVRQASGKGLEWVGRIRSKSNNYATYYAASVKGRFTISRDDSKSMAYLQMDSLKTEDTAVYYCVGGGDFWGQGTLVTVSS VL: DIQMTQSPSSLSASVGDRVTITCRASQEISVYLGWYQQKPGKAPKRLIYGAFKLQSGVPSRFSGSRSGTEFTLTISSLQPEDFATYYCLQYVRYPWTFGGGTKVEIK | 1.52 | 6.45 | 0.959 | 
Tau01 HOKJ (antibody, V domains shown, human IgG4 kappa (HuG4K)) VH: LVQVVESGGGLVQPGGSLKLSCAASGFTFNTYAMNWVRQASGKGLEWVARIRSKSNNYATYYAASVKGRFTISRDDSKSMAYLQMDSLKTEDTAVYYCVGGGDFWGQGTLVTVSS VL: DIQMTQSPSSLSASVGDRVTITCRASQEISVYLGWYQQKPGKAPKRLIYGAFSLQSGVPSRFSGSRSGTEFTLTISSLQPEDFATYYCLQYVRYPWTFGGGTKVEIK |  |  |  | 0.556
Tau01 HCKC (antibody, V domains shown, human IgG4 kappa (HuG4K)) VH: LVQLVESGGGLVQPGGSLKLSCAASGFTFNTYAMNWVRQASGKGLEWVGRIRSKSNNYATYYAASVKGRFTISRDDSKSMAYLQMDSLKTEDTAVYYCVGGGDFWGQGTLVTVSS VL: DIQMTQSPSSLSASVGDRVTITCRASQEISVYLSWFQQKPGKAPKRLIYGAFKLQSGVPSRFSGSRSGTEYTLTISSLQPEDFATYYCLQYVRYPWTFGGGTKVEIK | 1.57 | 1.34 |  | 
Tau01 HOKG (antibody, V domains shown, human IgG4 kappa (HuG4K)) VH: LVQVVESGGGLVQPGGSLKLSCAASGFTFNTYAMNWVRQASGKGLEWVARIRSKSNNYATYYAASVKGRFTISRDDSKSMAYLQMDSLKTEDTAVYYCVGGGDFWGQGTLVTVSS VL: DIQMTQSPSSLSASVGDRVTITCRASQEISVYLGWYQQKPGKAPKRLIYGAFTLQSGVPSRFSGSRSGTEFTLTISSLQPEDFATYYCLQYVRYPWTFGGGTKVEIK |  |  |  | 0.604

The remaining binders from weak to strong by EC50 [4], led by results:

EC50 [1] [nM] | EC50 [2] [nM] | EC50 [3] [nM] | EC50 [4] [nM] | Binder
 |  |  | 0.51 | Tau01 HOKB (antibody, V domains shown, human IgG4 kappa (HuG4K)) VH: LVQVVESGGGLVQPGGSLKLSCAASGFTFNTYAMNWVRQASGKGLEWVARIRSKSNNYATYYAASVKGRFTISRDDSKSMAYLQMDSLKTEDTAVYYCVGGGDFWGQGTLVTVSS VL: DIQMTQSPSSLSASVGDRVTITCRASQEISVYLSWFQQKPGKAIKRLIYGAFTLQSGVPSRFSGSRSGSEYTLTISSLQPEDFATYYCLQYVRYPWTFGGGTKVEIK
 |  |  | 0.482 | Tau01 HOKI (antibody, V domains shown, human IgG4 kappa (HuG4K)) VH: LVQVVESGGGLVQPGGSLKLSCAASGFTFNTYAMNWVRQASGKGLEWVARIRSKSNNYATYYAASVKGRFTISRDDSKSMAYLQMDSLKTEDTAVYYCVGGGDFWGQGTLVTVSS VL: DIQMTQSPSSLSASVGDRVTITCRASQEISVYLGWYQQKPGKAPKRLIYGAFKLQSGVPSRFSGSRSGTEYTLTISSLQPEDFATYYCLQYVRYPWTFGGGTKVEIK
 |  |  | 0.389 | Tau01 HOKA (antibody, V domains shown, human IgG4 kappa (HuG4K)) VH: LVQVVESGGGLVQPGGSLKLSCAASGFTFNTYAMNWVRQASGKGLEWVARIRSKSNNYATYYAASVKGRFTISRDDSKSMAYLQMDSLKTEDTAVYYCVGGGDFWGQGTLVTVSS VL: DIQMTQSPSSLSASVGDRVTITCRASQEISVYLGWYQQKPGKAPKRLIYGAFKLQSGVPSRFSGSRSGTEFTLTISSLQPEDFATYYCLQYVRYPWTFGGGTKVEIK

From patent publication US20220064272A1 (TAUC3 BIOLOGICS, published 2022)
